Measured values as given in the supplement of paper PMC9170038.

Test system: K4 kissing-loop RNA reporter
Experiment: apparent KD of K4 kissing-loop reporter; higher = weaker reporter binding
Conditions: Eterna round: R107
Experimental: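 RNA-MaP round R107: designed RNA switches with theophylline, tryptophan, arginine or FMN aptamers are transcribed on-chip within common flanks. They are titrated with a labelled K4 kissing-loop RNA reporter in RNA-MaP buffer (100 mM Tris pH 7.5, 80 mM KCl, 4 mM MgCl2), without ligand or with the indicated ligand. Median apparent KD per design.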

[1] = input ligand: theophylline 20 uM
[2] = input ligand: tryptophan 2.4 mM
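Further: bound reporter read as fluorescence of individual clusters on recovered sequencing chips by microscopy, with normalized cluster intensities fitted with a binding model.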

Row | Sequence | apparent KD of K4 kissing-loop reporter (input ligand: FMN 200 uM) [nM] | apparent KD of K4 kissing-loop reporter (input ligand: arginine 13.2 mM) [nM] | apparent KD of K4 kissing-loop reporter (input ligand: none) [nM] | apparent KD of K4 kissing-loop reporter [1] [nM] | apparent KD of K4 kissing-loop reporter [2] [nM]
1 | AAUGGGUGAUAAGGAUAUCCACCUCACAAACCAAGAGUGAUGUUCGUUGGUCCAUGGACAAUAUGUGGAGAAGGUAUAGUGAUUA [theeternabot_exclusion_KL_FMN_B_48] | 855 | 853 | 1000 | 747 | 700
2 | CGAGUGAUGUUCGUUUAUUACUCUGUUUGACAGGAUAUGCGGAAACGCAGAAGGGUCACCUUUGAGUUAGACGGAGUUAUUUUUU [Ex FMN A 22] | 539 | 359 | 407 | 355 | 323
3 | AGCCGAAAGGCGAGUGCUGUCACUCCGGAAGGAGCGCCCAAAAGGGCAGGUAGGUCGCCGGAGUGAUGUUCCGGUGCAGCACUCA [Omei KL Arginine A Exc B v3] | 572 | 497 | 784 | 533 | 482
4 | UGAUACCAGACUGAUACCAGCGAGUGAUGUUUGCUGAAAUCAGGGUCAAAGACCCUGUCUCGCCCUUGGCAGCAGUCUGGUAUCU [TheoBX 21 #SwitchBubble #StaticStem] | 735 | 601 | 754 | 223 | 688
5 | UCACGAGUGAUGUUCGUCGCAAUCACCGAAGGAGCGGGCGAAAGCCCAGGUAGGUCGCGGUAGAAUAAUGAUUUUAUUCGAUUGC [Same State Arginine A GF 26] | 786 | 602 | 756 | 613 | 568
6 | UGUCAUGGAAACAUGAACGUUGAUGUUCGACGAGGACCGGUACGGCCGCCACUCGAGUAAUAGUCAGUGAUGUUGACUGGGCUAA [KL-SSTryp-A form1 sub2] | 146 | 216 | 219 | 250 | 140
7 | AAUAAGUGUCAGCGAGUGAUGUUCGACGAUACCAGCCUCGAUAGAGGCCCUUGGCAGCGUAACGCAUGCCAAACUGGCACAAUAA [#SwitchBubble 7 #K4Early] | 500 | 497 | 557 | 393 | 441
8 | GGUAGCAUGGCGGCCGCCACUAACAACCUCACCUGCGGCUCGAUCGAGUGAUGUUCGAACGCAAUUAGGACCGGGCCAUGCUACC | 243 | 64.8 | 141 | 143 | 122
9 | GCGUAGAUUAGCAGUGAUGUUGCUACGGAAGGAGCGCGUGAAAACGCAGGUAGGUCGCCGACAAAAUUAAUUUUAAUGUCUGCGC [KL-SSArg-A6] | 469 | 448 | 596 | 423 | 365
10 | UGAUAGGACAGAAGGAGCGGAGGUCGUCAAAGACGACCAAUACGUUAAAUAGGAGUGAUGUUCCAGGUAGGUCGCUGUCCUAUCU [ArgBX 30 #SwitchBubble #StaticStem] | 123 | 119 | 123 | 129 | 106
11 | UCGGUAUAGUGAUGUUAUAUAGAGAGUGAUACCAGUUUAGAGAGAAACCCUUGGCAGCAUAGAAGAGUAUCAUUGGAGGAGGAGG [#20 K4 Theophylline A Exclusion] | 455 | 417 | 387 | 336 | 301
12 | ACAGCGAGCAUUAACGCGCUCGCAGGUUGCAAGGAUAUAUUUCGUCAUAGAAGGUGCUAGACCAUAAGUGAUGUUUGUGGAUAUA [theeternabot_sameState_KL_FMN_A_16] | 576 | 396 | 503 | 448 | 525
13 | AUUUAUUCGAGUGAUGUUCGUGAUUUUUCAGAGGAUAUGCGUAAUAGCAGAAGGCUGUAUUUAUAUAUAUUUUGAUUUUUUUAAA [JR_Nu3_ExcFMNA_Sub024] | 82.2 | 122 | 64.6 | 99.4 | 61.8
14 | CCAGGAUGAUGAGGAUGAUGAAUUACUGAAGGAGCGCAUAUGGUUGCAGGUAGGUCGCGGUGAAUAAGUAUAGUGAUGUUAUGCC [SSArgA.X] | 530 | 407 | 594 | 448 | 427
15 | AGAUUCGACACGGCCGCCACUUCCAGUGGCUGGUGUCAUGGUGCACGUGAGUGAUGUUUAUGUGGAAGGACCGGGUGUUGAGUCU [KL-XTryp-B2 #analogue] | 652 | 472 | 670 | 504 | 1250
16 | UGAUACCAGGCGGCCGCCACUCCUACAGGUCAAAGACCUGUAGAACUGGUUUUUUAGUGAUGUUGGAGGACCGGGCCUGGUAUCU [FiskerMod 30 - Jieux - Exclusion - Tryptophan B] | 698 | 217 | 394 | 296 | 321
17 | UAGCGUAUCAGAGGAUAUGAUAUGUUAUGCAGUGAUGUUGCAUGAUGUAGCAGAAUUCUGAGUGUAUCAGAAGGCUGAUAUGCUA [FMN B Ex t3] | 171 | 87.8 | 90.5 | 78.9 | 88.6
18 | AACCCAUGACUGGAUACCAGACUAUACAUGCUGAGUGAUGUUUAGCGGAGUCAUCUCUCGGUCCCUUGGCAGCCAACGUCACGCG [theeternabot_sameState_KL_Theo_B_33] | 614 | 334 | 646 | 403 | 373
19 | CGGACGGUAUCGGCCGCCACUCUGAAGACAGUGAUGUUGUCCGUGCAGUAUUUAGGAAAGCCGCGGAGGACCGGGAUGCGUCACU [theeternabot_sameState_KL_Trp_B_48] | 374 | 150 | 232 | 253 | 340
20 | GUCUCAAAAGAGGCAAGCACUAACGAGGACAAGGAUAUCAUCUCAAUGAGAAGGUGUCCUCGUCCUUAGUGAUGUUAAGGAGUGC [Omei KL FMN A SS E v5] | 348 | 226 | 211 | 376 | 356
21 | UAGUCAUACAGAGGAUAUCGUAUGAGUGAUGUUCAUACGACAUAAUCGAGUUGUAUCGAUGUUCGACGAGAAGGCUGUAUGACUA [FMN B Ex t1b] | 210 | 89.6 | 118 | 106 | 111

Row | Sequence | apparent KD of K4 kissing-loop reporter (input ligand: FMN 200 uM) [nM] | apparent KD of K4 kissing-loop reporter (input ligand: arginine 13.2 mM) [nM] | apparent KD of K4 kissing-loop reporter (input ligand: none) [nM] | apparent KD of K4 kissing-loop reporter [1] [nM] | apparent KD of K4 kissing-loop reporter [2] [nM]
22 | GAUGAAGAGUCGUUAGUUAGGGCUUUCGAUACCAGCGCCCGUCCACGCCCUUGGCAGCGAUUGAAAGAGUGAUGUUCUGUCAGGA [theeternabot_exclusion_KL_Theo_A_31] | 578 | 309 | 546 | 741 | 289
23 | GGCAUAGUCUCAACGUGUGGUUGGGUUGGGAAGGAUAUUUGAUCGAAAAGAAGGUCCCGCAUUGAGUGAUGUUCAAGGGCUCCAA [theeternabot_exclusion_KL_FMN_A_26] | 226 | 220 | 262 | 213 | 246
24 | UGUGAACAAAAGUAGAGUGGACCACUAUAGCGAGGACCGGUACGGCCGCCACUCGUACAUGUAUUCAGUGAUGUUGAAAUGAGCU [whbob_EX_Tryp_A_t15] | 200 | 319 | 268 | 362 | 150
25 | UGAUACCAGACGGCCGCCACUCCUGCAAGUCAAAGACUUGCUAAAAGGAUCGUCCAGUGAUGUUGGAGGACCGGGUCUGGUAUCU [TrypBX 19 #SwitchBubble #Palindromic #StaticStem] | 795 | 621 | 744 | 638 | 486
26 | UCUAGUUCUACGGCCGCCACUAUCGAGCACGGGUAUUAGUGAUGUUGAGGUCGUGUCUCCCUCCCUAGGACCGGGUAGAUCUUAG [theeternabot_sameState_KL_Trp_B_4] | 890 | 482 | 667 | 629 | 557
27 | ACAGGAUCGAAAGAUCCUGAGCAGUCAAACCGAGGACCGGUACGGCCGCCACUCGGAGUGAUGUUCCGAAGACUGCAAAAUAAAA [#SwitchBubble 1] | 539 | 707 | 1120 | 406 | 334
28 | AGGGUAAGGCGUUAACAUGACACCUGGGAAGGAGCGCGGUACACCGCAGGUAGGUCGCCCAGUGAUGUUGGGCGUAAGUAUGAGU [KL-XArg-A22] | 137 | 179 | 185 | 180 | 137
29 | UCUUGAGUAUAUGAUACCAGCAGUGAGAGACAGGAAGUAUAGUGAUGUUAUAUGAGAGAAUGCCCUUGGCAGCGUGUGCGGUGGG [SSTheophylB.S] | 103 | 144 | 112 | 187 | 94.7
30 | UUUAGGAGCGGUGUUGAUUAGGGAGCGGAAGGAGCGCCGAUUAUGGCAGGUAGGUCGCCGGAAUGUAGUGAUGUUGCAUAGAGGG [ExArgA.V] | 214 | 186 | 185 | 154 | 166
31 | UCGGCGUACGGGCGGGUAGUGAUGUUGCUCCGAGGACCGGUACGGCCGCCACUCGAGGUACCAGUUCAUAGAACCUGGCACAUCA [theeternabot_exclusion_KL_Trp_A_23] | 409 | 296 | 541 | 261 | 266
32 | UAGGGUUGAAAAGGAUAUUUACCCUAUGUCAACGAGUGAUGUUCGUGGACAUUAGGCACAACUCGUAAAGAAGGUUUCCAGACUC [theeternabot_sameState_KL_FMN_B_39] | 93 | 87.5 | 95 | 97.5 | 95.7
33 | AUUGAACAAGUGAUGUUUGUAUUUUCCGAAGGAGCGUCUAAUAAGACAGGUAGGUCGCGGUUUCUCUUAAUAAUCAGGUCUUUAA [JR_Nu_ExcArginiA_Sub021] | 279 | 287 | 279 | 292 | 238
34 | AUUUAAUUAACUGAUACCAGACUUUUUGUUUUGUUUAUUACUAGUGAUGUUAGUGUUUCUGUCCCUUGGCAGCAGAAUCUACUUA [JR_ExcTheophyB_Sub019] | 172 | 297 | 191 | 364 | 165
35 | AAAUUUUAAAGUGAUACCAGACAUCUCAAUUACAUUAAUAAAGCUAAGUGAUGUUUAGCAGUCCCUUGGCAGCACAAUUUAAUUA [JR_SSTheophyB_Sub011] | 272 | 334 | 334 | 447 | 281
36 | UGGAGUGCCUGGUCGUCACUAUGCCAACCACGAGGACCGGUACGGCCGCCACUCGUGAGGGAUAUUCAGAAAGUGAUGUUUUUUG [theeternabot_exclusion_KL_Trp_A_1] | 590 | 370 | 529 | 450 | 403
37 | GCUCAGGAGUGAUGUUCCUAGUGAUGUUAACGAGGACCGGUACGGCCGCCACUCGAUACGGCCGGACCGUAGGAUAAACUAGAGC [Same State - Tryptophan A (Freestyle 10)] | 292 | 238 | 261 | 351 | 340
38 | GGUUAGUGAUGUUGAUCAAAUCGCGGUGAUACCAGCAACACAUCGUGCCCUUGGCAGCACGGCAAAAUGAAUGCGGUCGAAUGCG [theeternabot_exclusion_KL_Theo_A_19] | 487 | 484 | 546 | 478 | 412
39 | GGAGUUACCUGGGAUACCAGUCGGAGGCCCAGAGCUCGGAGUGAUGUUCUGGGAUGUUUCGGCCCUUGGCAGCUCUGGGUCUCCG [#2 Exclusion - Theophylline B Attempt #4 (HarryS)] | 822 | 452 | 583 | 648 | 571
40 | CCGGCCCGGCCGGAUACCAGUGCGCCGCUGGGAACUGCGGGCCCAGAGUGAUGUUCGGGACACCCUUGGCAGCCGCCUGGGUCGC [#2 Same State - Theophylline B Attempt #25 (HarryS)] | 450 | 345 | 562 | 360 | 439
41 | AGAACUGUCUGAGAUACCAGCUAAGGAGUGAUGUUCCUAAGUCCACGAAAGUGGACUCAUAGCCCUUGGCAGCUCAGACAGUUCA [#24 K4 Theophylline B Same State] | 1150 | 675 | 815 | 565 | 963
